Experimental data from publication PMC6555819, “Comprehensive study of nuclear receptor DNA binding provides a revised framework for understanding receptor specificity”.

How the values were obtained:
Experiment in all cases: no ligand; PBM; 270 nM : 90 nM RXRa; PBS pH 7.4, 2% milk, 0.02% Triton X-100, 1 mM DTT, BSA, 0.4 mg/ml salmon testes DNA
[1] = target: VDR:RXRa (Homo sapiens, UniProt P11473;P19793 full;full); details: tags: His kept;His cleaved; copies: 1;1; label: surface-attached array probe
Method in brief: (§1)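 The probes on custom Agilent 4×180K protein-binding microarrays were double-stranded, with 34-nt variable regions bearing direct-repeat seeds, single-nucleotide variants, half-site ablations and random human genomic background sequences. Incubation lasted 1 h with ligand-free nuclear receptor dimers in PBS pH 7.4, 2% milk, 0.02% Triton X-100, 1 mM DTT, 0.2 mg/mL BSA and 0.4 mg/ml salmon testes DNA. Antibodies against each partner (one per run) detected bound dimers, and fluorescence scans were regression-normalized. Binding z-scores take the random background probes as reference.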

[2] = target: PPARa:RXRa (Homo sapiens, UniProt Q07869;P19793 full;full); details: tags: GST kept;His cleaved; copies: 1;1; label: surface-attached array probe
Method in brief: as §1

[3] = target: RARg:RXRa (Homo sapiens, UniProt P13631;P19793 full;full); details: tags: His kept;His cleaved; copies: 1;1; label: surface-attached array probe
Method in brief: as §1

Chain of VDR:RXRa (P11473 whole entry, chain 1 of 2): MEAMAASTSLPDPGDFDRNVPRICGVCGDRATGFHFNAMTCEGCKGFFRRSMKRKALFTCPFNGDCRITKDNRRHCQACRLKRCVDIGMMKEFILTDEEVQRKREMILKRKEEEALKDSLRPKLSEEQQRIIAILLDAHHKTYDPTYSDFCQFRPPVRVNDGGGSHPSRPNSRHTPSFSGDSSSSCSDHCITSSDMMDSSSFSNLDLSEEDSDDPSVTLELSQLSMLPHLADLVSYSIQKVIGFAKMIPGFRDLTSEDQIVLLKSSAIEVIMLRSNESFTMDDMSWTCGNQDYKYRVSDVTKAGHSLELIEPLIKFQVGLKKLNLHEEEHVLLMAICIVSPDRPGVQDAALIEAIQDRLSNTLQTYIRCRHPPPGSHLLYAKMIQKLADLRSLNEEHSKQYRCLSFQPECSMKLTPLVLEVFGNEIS
Chain of VDR:RXRa (P19793 whole entry, chain 2 of 2): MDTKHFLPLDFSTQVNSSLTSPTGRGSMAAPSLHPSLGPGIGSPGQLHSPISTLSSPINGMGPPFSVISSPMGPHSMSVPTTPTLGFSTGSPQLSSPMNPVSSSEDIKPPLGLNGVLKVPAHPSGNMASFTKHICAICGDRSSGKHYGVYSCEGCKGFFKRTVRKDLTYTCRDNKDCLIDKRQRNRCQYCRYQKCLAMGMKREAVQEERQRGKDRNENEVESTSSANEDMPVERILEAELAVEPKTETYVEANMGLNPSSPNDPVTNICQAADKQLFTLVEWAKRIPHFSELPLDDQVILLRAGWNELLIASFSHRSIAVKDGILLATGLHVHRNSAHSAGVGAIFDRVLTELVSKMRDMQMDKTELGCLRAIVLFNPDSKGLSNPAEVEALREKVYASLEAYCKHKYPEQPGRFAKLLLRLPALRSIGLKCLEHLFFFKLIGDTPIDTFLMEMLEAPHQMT
Chain of RARg:RXRa (P13631 whole entry, chain 1 of 2): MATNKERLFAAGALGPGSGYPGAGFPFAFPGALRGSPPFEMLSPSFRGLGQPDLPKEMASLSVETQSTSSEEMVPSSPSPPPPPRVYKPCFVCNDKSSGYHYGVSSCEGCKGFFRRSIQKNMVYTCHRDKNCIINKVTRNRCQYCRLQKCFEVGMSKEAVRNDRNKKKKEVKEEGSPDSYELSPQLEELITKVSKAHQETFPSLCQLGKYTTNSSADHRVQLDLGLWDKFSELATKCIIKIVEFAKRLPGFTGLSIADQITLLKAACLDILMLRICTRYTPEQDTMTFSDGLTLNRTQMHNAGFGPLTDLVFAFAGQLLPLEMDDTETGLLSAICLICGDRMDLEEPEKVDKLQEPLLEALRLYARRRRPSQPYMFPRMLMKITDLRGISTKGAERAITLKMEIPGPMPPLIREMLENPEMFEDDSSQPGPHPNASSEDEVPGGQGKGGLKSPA
Chain of RARg:RXRa (P19793 whole entry, chain 2 of 2): as the sequence (P19793 whole entry, chain 2 of 2) above
Chain of PPARa:RXRa (Q07869 whole entry, chain 1 of 2): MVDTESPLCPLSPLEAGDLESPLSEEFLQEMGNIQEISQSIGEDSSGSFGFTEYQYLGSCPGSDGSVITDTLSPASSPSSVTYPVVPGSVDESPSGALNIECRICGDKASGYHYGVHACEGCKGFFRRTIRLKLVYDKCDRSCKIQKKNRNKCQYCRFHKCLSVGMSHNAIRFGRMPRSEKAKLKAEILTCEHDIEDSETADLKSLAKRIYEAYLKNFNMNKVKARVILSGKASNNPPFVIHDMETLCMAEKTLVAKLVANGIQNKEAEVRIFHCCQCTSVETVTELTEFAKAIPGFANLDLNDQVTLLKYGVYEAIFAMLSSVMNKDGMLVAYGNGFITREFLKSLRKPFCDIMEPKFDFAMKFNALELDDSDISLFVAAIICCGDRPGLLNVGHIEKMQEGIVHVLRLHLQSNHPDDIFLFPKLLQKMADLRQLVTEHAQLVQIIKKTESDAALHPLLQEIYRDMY
Chain of PPARa:RXRa (P19793 whole entry, chain 2 of 2): as the sequence (P19793 whole entry, chain 2 of 2) above

B1: NRC3_random_hg19_161_o1 (dsDNA)
DNA 1: GCTCTGTGGCCTCGGCTCTCCAGGACTCGGAGGCTCGCGATTGACAGCGTAGAATGAAGG
DNA 2: CCTTCATTCTACGCTGTCAATCGCGAGCCTCCGAGTCCTGGAGAGCCGAGGCCACAGAGC
binding signal [1]: -0.38 PBM z-score against 500 random probes

B2: NRC3_random_hg19_125_o1 (dsDNA)
DNA 1: GCCAACCTACCAAACCATAACCAGTGTGTTTGCTCCGCGATTGACAGCGTAGAATGAAGG
DNA 2: CCTTCATTCTACGCTGTCAATCGCGGAGCAAACACACTGGTTATGGTTTGGTAGGTTGGC
binding signal [1]: 0.33 PBM z-score against 500 random probes

B3: NRC3_random_hg19_353_o1 (dsDNA)
DNA 1: GCATAGAACTTAACTACCACCTCTCATTACCTGGAGGCGATTGACAGCGTAGAATGAAGG
DNA 2: CCTTCATTCTACGCTGTCAATCGCCTCCAGGTAATGAGAGGTGGTAGTTAAGTTCTATGC
binding signal [1]: 0.31 PBM z-score against 500 random probes | binding signal [2]: -0.07 PBM z-score against 500 random probes

B4: NRC3_random_hg19_191_o1 (dsDNA)
DNA 1: GCAGGAGAGACAGAGGAAGAGATGTGACATCAGAAGGCGATTGACAGCGTAGAATGAAGG
DNA 2: CCTTCATTCTACGCTGTCAATCGCCTTCTGATGTCACATCTCTTCCTCTGTCTCTCCTGC
binding signal [1]: 0.21 PBM z-score against 500 random probes

B5: NRC3_random_hg19_438_o1 (dsDNA)
DNA 1: GCTGTCGCCATCAAGCTACCATTGACTTTCTTCACAGCGATTGACAGCGTAGAATGAAGG
DNA 2: CCTTCATTCTACGCTGTCAATCGCTGTGAAGAAAGTCAATGGTAGCTTGATGGCGACAGC
binding signal [1]: -0.03 PBM z-score against 500 random probes | binding signal [2]: 0.12 PBM z-score against 500 random probes

B6: NRC3_random_hg19_3_o1 (dsDNA)
DNA 1: GCGCCAGAGGTGGAATGATATGATATGTCTCTGTGTGCGATTGACAGCGTAGAATGAAGG
DNA 2: CCTTCATTCTACGCTGTCAATCGCACACAGAGACATATCATATCATTCCACCTCTGGCGC
binding signal [1]: -0.61 PBM z-score against 500 random probes

B7: NRC3_random_hg19_358_o1 (dsDNA)
DNA 1: GCCTAGCAGCAACCAACCACAATGGCAAGGATGTAGGCGATTGACAGCGTAGAATGAAGG
DNA 2: CCTTCATTCTACGCTGTCAATCGCCTACATCCTTGCCATTGTGGTTGGTTGCTGCTAGGC
binding signal [1]: -0.81 PBM z-score against 500 random probes | binding signal [3]: -0.41 PBM z-score against 500 random probes

B8: NRC3_random_hg19_247_o1 (dsDNA)
DNA 1: GCGCATGCCACAGGACTGGTAGGCAGCTCCATCTGCGCGATTGACAGCGTAGAATGAAGG
DNA 2: CCTTCATTCTACGCTGTCAATCGCGCAGATGGAGCTGCCTACCAGTCCTGTGGCATGCGC
binding signal [1]: -0.83 PBM z-score against 500 random probes

B9: NRC3_random_hg19_337_o1 (dsDNA)
DNA 1: GCGTATTGAGCATCTATGATCTGCCAGTTAGGCTGCGCGATTGACAGCGTAGAATGAAGG
DNA 2: CCTTCATTCTACGCTGTCAATCGCGCAGCCTAACTGGCAGATCATAGATGCTCAATACGC
binding signal [1]: -0.54 PBM z-score against 500 random probes

B10: NRC3_random_hg19_260_o1 (dsDNA)
DNA 1: GCGGAAGTCCTCTTTGCCACATTTCCAACAGATGGCGCGATTGACAGCGTAGAATGAAGG
DNA 2: CCTTCATTCTACGCTGTCAATCGCGCCATCTGTTGGAAATGTGGCAAAGAGGACTTCCGC
binding signal [1]: 0.14 PBM z-score against 500 random probes | binding signal [2]: 0.42 PBM z-score against 500 random probes

B11: NRC3_random_hg19_426_o1 (dsDNA)
DNA 1: GCTGGAATCCTAGTGCTTTGGGAGGCTGAGGCTGGAGCGATTGACAGCGTAGAATGAAGG
DNA 2: CCTTCATTCTACGCTGTCAATCGCTCCAGCCTCAGCCTCCCAAAGCACTAGGATTCCAGC
binding signal [1]: -0.9 PBM z-score against 500 random probes | binding signal [2]: -0.97 PBM z-score against 500 random probes

B12: NRC3_random_hg19_461_o1 (dsDNA)
DNA 1: GCGCCTGACTCCAGCCCACAGGCTGGGAGTGGAAGTGCGATTGACAGCGTAGAATGAAGG
DNA 2: CCTTCATTCTACGCTGTCAATCGCACTTCCACTCCCAGCCTGTGGGCTGGAGTCAGGCGC
binding signal [1]: -1.25 PBM z-score against 500 random probes

B13: NRC3_wobSeed18_DR0_C13A_o1 (dsDNA)
DNA 1: GCGATACAGGGTAAAGGCCAGAGTACGCGTATTGATGCGATTGACAGCGTAGAATGAAGG
DNA 2: CCTTCATTCTACGCTGTCAATCGCATCAATACGCGTACTCTGGCCTTTACCCTGTATCGC
binding signal [1]: 0.02 PBM z-score against 500 random probes

B14: NRC3_wobSeed123_DR5_G26A_o1 (dsDNA)
DNA 1: GCCCTCGGAGGACAACAGGAGGTCAAAGCTGCCAGAGCGATTGACAGCGTAGAATGAAGG
DNA 2: CCTTCATTCTACGCTGTCAATCGCTCTGGCAGCTTTGACCTCCTGTTGTCCTCCGAGGGC
binding signal [1]: 3.35 PBM z-score against 500 random probes | binding signal [3]: 4.36 PBM z-score against 500 random probes

B15: NRC3_wobSeed100_DR4_A24T_o1 (dsDNA)
DNA 1: GCCCTACTGGGCCACGAAAGGTCTTTGATTCAGTGAGCGATTGACAGCGTAGAATGAAGG
DNA 2: CCTTCATTCTACGCTGTCAATCGCTCACTGAATCAAAGACCTTTCGTGGCCCAGTAGGGC
binding signal [1]: -0.14 PBM z-score against 500 random probes

B16: NRC3_random_hg19_107_o1 (dsDNA)
DNA 1: GCCTCAGGCTGAGTTGTGGTAGTGTAATCATAGCTCGCGATTGACAGCGTAGAATGAAGG
DNA 2: CCTTCATTCTACGCTGTCAATCGCGAGCTATGATTACACTACCACAACTCAGCCTGAGGC
binding signal [1]: -0.64 PBM z-score against 500 random probes | binding signal [3]: -0.79 PBM z-score against 500 random probes

B17: NRC3_random_hg19_409_o1 (dsDNA)
DNA 1: GCGACTGCACTCCAGCCTGGGTGACACAACAAGACTGCGATTGACAGCGTAGAATGAAGG
DNA 2: CCTTCATTCTACGCTGTCAATCGCAGTCTTGTTGTGTCACCCAGGCTGGAGTGCAGTCGC
binding signal [1]: -0.08 PBM z-score against 500 random probes

B18: NRC3_random_hg19_370_o1 (dsDNA)
DNA 1: GCTTTCTTTCTCTCTTGTCTGATTGCTCTGGCTAGAGCGATTGACAGCGTAGAATGAAGG
DNA 2: CCTTCATTCTACGCTGTCAATCGCTCTAGCCAGAGCAATCAGACAAGAGAGAAAGAAAGC
binding signal [1]: 0.44 PBM z-score against 500 random probes

B19: NRC3_random_hg19_154_o1 (dsDNA)
DNA 1: GCAAGCATAGCTTTGAGAGCAGTAAAGTGGTTCATTGCGATTGACAGCGTAGAATGAAGG
DNA 2: CCTTCATTCTACGCTGTCAATCGCAATGAACCACTTTACTGCTCTCAAAGCTATGCTTGC
binding signal [1]: -0.41 PBM z-score against 500 random probes

B20: NRC3_random_hg19_251_o1 (dsDNA)
DNA 1: GCCTGTGGAATCCAACATGCCAAATGCTTGCTTGAGGCGATTGACAGCGTAGAATGAAGG
DNA 2: CCTTCATTCTACGCTGTCAATCGCCTCAAGCAAGCATTTGGCATGTTGGATTCCACAGGC
binding signal [1]: -0.19 PBM z-score against 500 random probes

B21: NRC3_random_hg19_17_o1 (dsDNA)
DNA 1: GCCTGCAGTTTCACTTTGCATGTCTTCTTTCCTCAAGCGATTGACAGCGTAGAATGAAGG
DNA 2: CCTTCATTCTACGCTGTCAATCGCTTGAGGAAAGAAGACATGCAAAGTGAAACTGCAGGC
binding signal [1]: 0.19 PBM z-score against 500 random probes

B22: NRC3_random_hg19_115_o1 (dsDNA)
DNA 1: GCATCACCTGAGGCCAGGAATTCGAACCAGCATGGCGCGATTGACAGCGTAGAATGAAGG
DNA 2: CCTTCATTCTACGCTGTCAATCGCGCCATGCTGGTTCGAATTCCTGGCCTCAGGTGATGC
binding signal [1]: -0.3 PBM z-score against 500 random probes | binding signal [2]: -0.52 PBM z-score against 500 random probes

B23: NRC3_wobSeed124_DR5_C13G_o1 (dsDNA)
DNA 1: GCCCTACTGGGCGATTCAGAGGTCATTGATCATATGGCGATTGACAGCGTAGAATGAAGG
DNA 2: CCTTCATTCTACGCTGTCAATCGCCATATGATCAATGACCTCTGAATCGCCCAGTAGGGC
binding signal [1]: 3.28 PBM z-score against 500 random probes | binding signal [2]: 3.07 PBM z-score against 500 random probes

B24: NRC3_random_hg19_30_o1 (dsDNA)
DNA 1: GCTGGAATGCAGTGGCACGATCACACATCACTGCAAGCGATTGACAGCGTAGAATGAAGG
DNA 2: CCTTCATTCTACGCTGTCAATCGCTTGCAGTGATGTGTGATCGTGCCACTGCATTCCAGC
binding signal [1]: -0.46 PBM z-score against 500 random probes

B25: NRC3_random_hg19_132_o1 (dsDNA)
DNA 1: GCCAATGCCAGCTACCAGGAGGCTGAGGTGTGAGAGGCGATTGACAGCGTAGAATGAAGG
DNA 2: CCTTCATTCTACGCTGTCAATCGCCTCTCACACCTCAGCCTCCTGGTAGCTGGCATTGGC
binding signal [1]: -0.75 PBM z-score against 500 random probes | binding signal [3]: -0.61 PBM z-score against 500 random probes

B26: NRC3_random_hg19_108_o1 (dsDNA)
DNA 1: GCTAGGAATGTGAGTTTCTCTAAGTTCTATTCCTGGGCGATTGACAGCGTAGAATGAAGG
DNA 2: CCTTCATTCTACGCTGTCAATCGCCCAGGAATAGAACTTAGAGAAACTCACATTCCTAGC
binding signal [1]: 0.17 PBM z-score against 500 random probes | binding signal [3]: 0.22 PBM z-score against 500 random probes

B27: NRC3_random_hg19_335_o1 (dsDNA)
DNA 1: GCATCTATGTGCATATGGAAGAAAGGAATGCAAGATGCGATTGACAGCGTAGAATGAAGG
DNA 2: CCTTCATTCTACGCTGTCAATCGCATCTTGCATTCCTTTCTTCCATATGCACATAGATGC
binding signal [1]: -0.62 PBM z-score against 500 random probes

B28: NRC3_random_hg19_274_o1 (dsDNA)
DNA 1: GCTTCGTGCCCTTCCCTTGGACAGACTCCCTTGGCAGCGATTGACAGCGTAGAATGAAGG
DNA 2: CCTTCATTCTACGCTGTCAATCGCTGCCAAGGGAGTCTGTCCAAGGGAAGGGCACGAAGC
binding signal [1]: 0.25 PBM z-score against 500 random probes

B29: NRC3_wobSeed89_DR3_C26G_o1 (dsDNA)
DNA 1: GCCTATGTAGGTTAAGGGGGTCATTGAGTTTGAAAGGCGATTGACAGCGTAGAATGAAGG
DNA 2: CCTTCATTCTACGCTGTCAATCGCCTTTCAAACTCAATGACCCCCTTAACCTACATAGGC
binding signal [1]: 8.2 PBM z-score against 500 random probes | binding signal [2]: 6.55 PBM z-score against 500 random probes
